The source of these data is article PMC3320602.

In the experiment the target is HIV-1 JR-FL envelope glycoprotein (gp120 and gp41) on GFP-labelled Env-pseudotyped particles (HIV-1 isolate JR-FL).

Substance “tetrameric CD4-IgG2 molecule (PRO 542) (from UniProt P01730 26-396; P01730 26-396) (Fc fusion)” had an IC50 of inhibition of JR-FL infection of TZM-bl cells (luciferase), cell-cell transmission from infected PBMC against cell-free virus; the pair blocked is m1+m3 of 40 fold.
